The record followed here is US20250161408A1, “PEPTIDIC INHIBITORS OF AMYLOID SELF- AND CROSS-ASSEMBLY” (TECHNISCHE UNIVERSITÄT MÜNCHEN, priority 2022, published 2025).

Assay [1] concerns the target islet amyloid polypeptide (IAPP) (human) (UniProt P10997).
Assay [2] concerns the target IAPP fibrils (fIAPP) (human) (UniProt P10997).
Assay [3] has as its target Aβ42 fibrils (fAβ42) (Homo sapiens (Human)) (UniProt P05067).
Assay [4] has as its target Aβ42 (Homo sapiens (Human)) (UniProt P05067).

As to “proteinase K (PK) (from UniProt P06873) (enzyme)”, the proteinase K digestion of hf-IAPP/ACM followed by dot blot in assay [1] was less than 6 h. In addition, the proteinase K digestion followed by dot blot (anti-fIAPP antibody) in assay [2] was more than 30 h. Moreover, the proteinase K digestion followed by dot blot (6E10) in assay [3] was found to be 2 h. Besides, the proteinase K digestion of hf-Aβ42/Nle3-VF followed by dot blot (6E10) in assay [4] came to 30 min.
